According to US20180237497A1 (CANCER RESEARCH TECHNOLOGY, published 2018):

Assays:
[1] = target: T1, human IGF2^1-67 (mature insulin-like growth factor 2) (human, UniProt P01344 25-91, biotinylated (site not stated) where immobilised on the chip (Tables 1-4)); assay: SPR steady state, biotin-IGF2 on chip, pH 7.4
T1 construct: mature; also called mature IGF2; biotinylated IGF2
Method: (§1) Final kinetic analysis of mutants by SPR was conducted using a Biacore T200 biosensor at 25° C. in either HBS-EP (10 mM HEPES pH 7.4, 150 mM NaCl, 3 mM EDTA, and 0.005% (v/v) surfactant P20) or MES-EP (20 mM MES pH 6.5, 150 mM NaCl, 3 mM EDTA, and 0.005% (v/v) surfactant P20) at a flow-rate of 40 μL min⁻¹. […] For the analysis of the Fc-domain 11^AB5 interaction, approximately 50 RU of a biotinylated IGF2:biotinylated ubiquitin mixture (1:8 proportion) was immobilized on the CM5-streptavidin chip. This interaction was also analysed by immobilizing the Fc-domain 11^AB5 and Fc-domain 11^AB5-RHH (or Fc-domain 11^I1572A as control) by Human Antibody Capture (monoclonal mouse anti-human IgG antibody immobilised on a CM5 chip by amine coupling, GE Healthcare) with and without human IgG1 Fc fragment (Bethyl Laboratories, UK) in the control flow cell. […] T200 BiaEvaluation software (GE Healthcare) was used to fit the resulting curves according to a 1:1 binding model. Steady state affinities were determined using the kinetic data, taking the response average at 5 seconds before injection end and for 5 seconds average. Thermodynamic data was performed across the temperature range of 10° C. to 30° C., van't Hoff and Erying plots generated and ΔH, −TΔS and ΔG values determined as previously described.

[2] = target: T1, human IGF2^1-67 (mature insulin-like …); assay: SPR
Excerpt: (§2) Surface plasmon resonance (SPR) binding analysis of recombinant M6P/IGF2R domain 11 mutants interaction with IGF2. Kon indicates association (on) rate; koff, dissociation (off) rate; RU, response units. Binding to IGF2 assessed with BIAcore T200 using purified biotinylated IGF2 and IGF1 on a streptavidin biosensor chip. Recombinant proteins were expressed either in E. coli and/or P. pastoris. All the mutants in the FG and CD loops are on the domain 11^AB5 background for the AB loop unless otherwise stated. All experiments were carried out at 25° C. in HBS-EP buffer (pH 7.4), were repeated 2-5 times on two independent BIAcore chips. nd=not determined. Data for KD expressed as mean of each experiment, and means of kon and koff are shown.
as §1, with “model.” for “model. Steady state affinities were determined using the kinetic data, taking the response average at 5 seconds before injection end and for 5 seconds average. Thermodynamic data was performed across the temperature range of 10° C. to 30° C., van't Hoff and Erying plots generated and ΔH, −TΔS and ΔG values determined as previously described.”

[3] = target: T1, human IGF2^1-67 (mature insulin-like …); assay: SPR kinetic, biotin-IGF2 on chip, pH 7.4
Method: as §1

[4] = target: T1, human IGF2^1-67 (mature insulin-like …); assay: SPR kinetic, biotin-IGF2 on chip
Method: as §1

[5] = target: T1, human IGF2^1-67 (mature insulin-like …); assay: SPR steady state, biotin-IGF2 on chip
Method: as §1

[6] = target: T1, human IGF2^1-67 (mature insulin-like …); assay: SPR steady state, biotin-IGF2 on chip, pH 7.4; remark: listed apart in the source
Excerpt: as §2
as §1, with “average.” for “average. Thermodynamic data was performed across the temperature range of 10° C. to 30° C., van't Hoff and Erying plots generated and ΔH, −TΔS and ΔG values determined as previously described.”

[7] = target: T1, human IGF2^1-67 (mature insulin-like …); assay: SPR kinetic, biotin-IGF2 on chip, pH 7.4; remark: listed apart in the source
Excerpt: as §2
as §1, with “average.” for “average. Thermodynamic data was performed across the temperature range of 10° C. to 30° C., van't Hoff and Erying plots generated and ΔH, −TΔS and ΔG values determined as previously described.”

T1 sequence (P01344 25-91): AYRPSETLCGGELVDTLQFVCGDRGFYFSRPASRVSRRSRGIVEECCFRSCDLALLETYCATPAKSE

B1: domain 11^AB3 P1597K (receptor)
chain: MKSNEHDDCQVTNPSTGHLFDLSSLSGRAGFTAAYSKSGVVYMSICGENENCPPGVGACFGQTRISVGKANKRLRYVDQVLQLVYKDGSKCPSKSGLSYKSVISFVCRPEAGPTNRPMLISLDKQTCTLFFSWHTPLACEQATECSV
notes: See m5
In the case of B1, the Kd [1] is reported as 3.59 nM, the “fold change of KD against domain 11^AB3” value [2] is reported as 6 fold and the “fold reduction of koff against domain 11^AB3” value [2] is reported as 2 fold. It also gave a Kd [3] of 2.78 nM, a koff [3] of 0.0287 s⁻¹ and a kon [3] of 1.05e+07 M⁻¹ s⁻¹.

B2: domain 11^AB5 + 51F (HI-NRQS) (receptor)
chain: MKSNEHDDCQVTNPSTGHLFDLSSLSGRAGFTAAYAKGWGVYMSICGENENCPPGVGACFGQTRISVGKANKRLRYVDQVLQLVYKDGSPCPSKSGLSYKSVISFVCRPEAGPTNRPMLISLNRQSCTLFFSWHTPLACEQATECSV
notes: See m5; Protein quality poor
A Kd [4] of 13.5 nM, a koff [4] of 0.1 s⁻¹ and a kon [4] of 7.4e+06 M⁻¹ s⁻¹ were found for B2 in this work. The Kd [5] was 6.94 nM.

B3: domain 11^AB5 K1601R (receptor)
chain: MKSNEHDDCQVTNPSTGHLFDLSSLSGRAGFTAAYAKGWGVYMSICGENENCPPGVGACFGQTRISVGKANKRLRYVDQVLQLVYKDGSPCPSRSGLSYKSVISFVCRPEAGPTNRPMLISLDKQTCTLFFSWHTPLACEQATECSV
notes: See m5
For B3, the “fold improvement of affinity” value [2] was at most 2 fold, the Kd [6] was 5.78 nM and the Kd [7] was 4.75 nM. For the same binder, the koff [7] was 0.0251 s⁻¹ and the kon [7] was 5.28e+06 M⁻¹ s⁻¹.

B4: domain 11^AB5 P1597N (receptor)
chain: MKSNEHDDCQVTNPSTGHLFDLSSLSGRAGFTAAYAKGWGVYMSICGENENCPPGVGACFGQTRISVGKANKRLRYVDQVLQLVYKDGSNCPSKSGLSYKSVISFVCRPEAGPTNRPMLISLDKQTCTLFFSWHTPLACEQATECSV
notes: See m5
A Kd [1] of 5.36 nM, a Kd [3] of 4.13 nM and a koff [3] of 0.018 s⁻¹ were found for B4 in this work. It also gave a kon [3] of 4.72e+06 M⁻¹ s⁻¹.

B5: domain 11^AB5 P1597Q (receptor)
chain: MKSNEHDDCQVTNPSTGHLFDLSSLSGRAGFTAAYAKGWGVYMSICGENENCPPGVGACFGQTRISVGKANKRLRYVDQVLQLVYKDGSQCPSKSGLSYKSVISFVCRPEAGPTNRPMLISLDKQTCTLFFSWHTPLACEQATECSV
notes: See m5
A Kd [1] of 4.51 nM, a Kd [3] of 3.83 nM and a koff [3] of 0.0203 s⁻¹ were found for B5 in this work. For the same binder, the kon [3] was 6.53e+06 M⁻¹ s⁻¹.

B6: domain 11^AB5 P1597S (receptor)
chain: MKSNEHDDCQVTNPSTGHLFDLSSLSGRAGFTAAYAKGWGVYMSICGENENCPPGVGACFGQTRISVGKANKRLRYVDQVLQLVYKDGSSCPSKSGLSYKSVISFVCRPEAGPTNRPMLISLDKQTCTLFFSWHTPLACEQATECSV
notes: See m5
A Kd [1] of 4.9 nM, a Kd [3] of 4.19 nM and a koff [3] of 0.0193 s⁻¹ were found for B6 in this work. For the same binder, the kon [3] was 5e+06 M⁻¹ s⁻¹.

B7: domain 11^AB5 Q1569R P1597H K1631W (receptor)
chain: MKSNEHDDCQVTNPSTGHLFDLSSLSGRAGFTAAYAKGWGVYMSICGENENCPPGVGACFGRTRISVGKANKRLRYVDQVLQLVYKDGSHCPSKSGLSYKSVISFVCRPEAGPTNRPMLISLDWQTCTLFFSWHTPLACEQATECSV
notes: See m5
A Kd [1] of 1.95 nM, a Kd [3] of 1.02 nM and a koff [3] of 0.0115 s⁻¹ were found for B7 in this work. The kon [3] was 1.12e+07 M⁻¹ s⁻¹.

B8: domain 11^AB5 Q1569R P1597K (receptor)
chain: MKSNEHDDCQVTNPSTGHLFDLSSLSGRAGFTAAYAKGWGVYMSICGENENCPPGVGACFGRTRISVGKANKRLRYVDQVLQLVYKDGSKCPSKSGLSYKSVISFVCRPEAGPTNRPMLISLDKQTCTLFFSWHTPLACEQATECSV
notes: See m5
A Kd [1] of 1.69 nM, a Kd [3] of 0.95 nM and a koff [3] of 0.0091 s⁻¹ were found for B8 in this work. It also gave a kon [3] of 9.59e+06 M⁻¹ s⁻¹.

B9: domain 11^AB5 Q1569R P1597K S1602H (receptor)
chain: MKSNEHDDCQVTNPSTGHLFDLSSLSGRAGFTAAYAKGWGVYMSICGENENCPPGVGACFGRTRISVGKANKRLRYVDQVLQLVYKDGSKCPSKHGLSYKSVISFVCRPEAGPTNRPMLISLDKQTCTLFFSWHTPLACEQATECSV
notes: See m5
A Kd [1] of 2.11 nM, a Kd [3] of 0.92 nM and a koff [3] of 0.0073 s⁻¹ were found for B9 in this work. For the same binder, the kon [3] was 7.87e+06 M⁻¹ s⁻¹.

B10: domain 11^AB5 S1602Q (receptor)
chain: MKSNEHDDCQVTNPSTGHLFDLSSLSGRAGFTAAYAKGWGVYMSICGENENCPPGVGACFGQTRISVGKANKRLRYVDQVLQLVYKDGSPCPSKQGLSYKSVISFVCRPEAGPTNRPMLISLDKQTCTLFFSWHTPLACEQATECSV
notes: See m5
In the case of B10, the “fold improvement of affinity” value [2] is reported as at most 2 fold, the Kd [6] is reported as 5.11 nM and the Kd [7] is reported as 3.61 nM. The koff [7] was 0.0191 s⁻¹ and the kon [7] was 5.88e+06 M⁻¹ s⁻¹.

B11: domain 11^AB5 W1546F (receptor)
chain: MKSNEHDDCQVTNPSTGHLFDLSSLSGRAGFTAAYAKGFGVYMSICGENENCPPGVGACFGQTRISVGKANKRLRYVDQVLQLVYKDGSPCPSKSGLSYKSVISFVCRPEAGPTNRPMLISLDKQTCTLFFSWHTPLACEQATECSV
notes: See m5
B11 was tested, and the “fold reduction of koff” value [2] was 2 fold, the Kd [6] was 5 nM and the Kd [7] was 4.35 nM. For the same binder, the koff [7] was 0.018 s⁻¹ and the kon [7] was 4.5e+06 M⁻¹ s⁻¹.

B12: domain 11^WT + 23D (HI-HFQS) (receptor)
chain: MKSNEHDDCQVTNPSTGHLFDLSSLSGRAGFTAAYSEKGLVYMSICGENENCPPGVGACFGQTRISVGKANKRLRYVDQVLQLVYKDGSPCPSKSGLSYKSVISFVCRPEAGPTNRPMLISLHFQSCTLFFSWHTPLACEQATECSV
notes: See m5; Protein quality poor based on absorption spectra
A Kd [4] of 176 nM, a koff [4] of 0.065 s⁻¹ and a kon [4] of 250000 M⁻¹ s⁻¹ were found for B12 in this work. It also gave a Kd [5] of 220 nM.

B13: domain 11^WT + 26C (HI-DMQT) (receptor)
chain: MKSNEHDDCQVTNPSTGHLFDLSSLSGRAGFTAAYSEKGLVYMSICGENENCPPGVGACFGQTRISVGKANKRLRYVDQVLQLVYKDGSPCPSKSGLSYKSVISFVCRPEAGPTNRPMLISLDMQTCTLFFSWHTPLACEQATECSV
notes: See m5; Protein quality poor
A Kd [4] of 130 nM, a koff [4] of 0.24 s⁻¹ and a kon [4] of 1.89e+06 M⁻¹ s⁻¹ were found for B13 in this work. For the same binder, the Kd [5] was 127 nM.

B14: domain 11^WT + 27G (HI-NMAL) (receptor)
chain: MKSNEHDDCQVTNPSTGHLFDLSSLSGRAGFTAAYSEKGLVYMSICGENENCPPGVGACFGQTRISVGKANKRLRYVDQVLQLVYKDGSPCPSKSGLSYKSVISFVCRPEAGPTNRPMLISLNMALCTLFFSWHTPLACEQATECSV
notes: See m5; Protein quality poor
A Kd [4] of 195 nM, a koff [4] of 0.25 s⁻¹ and a kon [4] of 2e+06 M⁻¹ s⁻¹ were found for B14 in this work. For the same binder, the Kd [5] was 194 nM.
